Measured values reported in patent publication US20200199214A1 (Hoffmann-La Roche, published 2020).

T1: cynomolgus IL-1 beta (Sino Biological 90010-CNAE) (cynomolgus, UniProt P79182 117-268)
T1 sequence (looked up): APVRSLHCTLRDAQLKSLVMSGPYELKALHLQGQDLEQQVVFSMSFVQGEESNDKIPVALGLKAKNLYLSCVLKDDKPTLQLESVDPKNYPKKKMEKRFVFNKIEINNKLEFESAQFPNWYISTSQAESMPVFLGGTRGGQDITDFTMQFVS

T2: Human VEGF121-His (human, UniProt P15692-9 27-147)
T2 construct: not shown: His tag
T2 sequence (looked up): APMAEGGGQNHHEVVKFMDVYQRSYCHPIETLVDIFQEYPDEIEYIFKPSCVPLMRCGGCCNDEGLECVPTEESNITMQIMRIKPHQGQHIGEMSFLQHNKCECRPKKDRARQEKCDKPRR

T3: human VEGF121 (human, UniProt P15692-9 27-147)
T3 construct: No tag is stated for these preparations; Kept apart from VEGF121-His; also called HuVEGF121
T3 sequence (looked up): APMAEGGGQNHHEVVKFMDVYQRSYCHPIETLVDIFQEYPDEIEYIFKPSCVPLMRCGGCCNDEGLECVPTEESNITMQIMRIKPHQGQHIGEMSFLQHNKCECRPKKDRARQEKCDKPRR


How the values were obtained:
[1] = molecular target: T1, cynomolgus IL-1 beta (Sino Biological …); experiment: SPR, Fab captured via anti-Fab antibody, cynomolgus IL-1beta injected, 1:1 Langmuir fit
Description: (§1) An anti-Fab capturing antibody (GE Healthcare 28958325) was immobilized to a Series S Sensor Chip C1 (GE Healthcare 29104990) using standard amine coupling chemistry resulting in a surface density of approximately 500 resonance units (RU). The bispecific anti-VEGF/anti-IL-1beta Fab fragment was captured to the surface with resulting capture levels of approximately 20 RU. A dilution series ranging from 0.74 to 60 nM (1:3 dilution) of either human IL-1 beta (PeproTech 200-01B) or cynomolgus IL-1 beta (Sino Biological 90010-CNAE) was injected for 90 s, dissociation was monitored for at least 600 s at a flow rate of 30 μl/min. The surface was regenerated by two consecutive injections of 10 mM Glycine pH 2.1 for 60 s each. Bulk refractive index differences were corrected by subtracting blank injections and by subtracting the response obtained from the control flow cell without captured bispecific anti-VEGF/anti-IL-1beta Fab fragment. Curve fitting was performed using the 1:1 Langmuir binding model within the Biacore evaluation software.
(§2) Binding kinetics to VEGF and IL-1beta for the candidate antibodies were assessed as described in Example 3 using the indicated bispecific anti-VEGF/anti-IL-1beta Fab fragments (amino acid sequence as illustrated in Table 3). For comparison, antigen binding kinetics of prior art anti-VEGF/anti-IL-1beta antibody 0032, a full length IgG antibody, as disclosed in WO2016/075034 are depicted.

[2] = molecular target: T4, human IL-1 beta (PeproTech 200-01B) (human, UniProt P01584 117-269); experiment: SPR, Fab captured via anti-Fab antibody, human IL-1beta injected, 1:1 Langmuir fit; n = 4
T4 construct: As printed it covers only the N-terminal part of the precursor, so it was not used; also called huIL-1 beta; IL1β
Description: as §1
Binding kinetics to VEGF and IL-1beta for the candidate antibodies were assessed as described in Example 3 using the indicated bispecific anti-VEGF/anti-IL-1beta Fab fragments (amino acid sequence as illustrated in Table 3). […]

[3] = molecular target: T2, Human VEGF121-His; experiment: SPR, VEGF121-His captured via anti-His antibody, Fab injected, single cycle kinetics, 1:1 Langmuir fit
Description: (§3) An anti-His capturing antibody (GE Healthcare 28995056) was immobilized to a Series S Sensor Chip C1 (GE Healthcare 29104990) using standard amine coupling chemistry resulting in a surface density of approximately 500 resonance units (RU). As running and dilution buffer, HBS-P+(10 mM HEPES, 150 mM NaCl pH 7.4, 0.05% Surfactant P20) was used. Human VEGF121-His was captured to the surface with resulting ligand densities of approximately 10 and 20 RU, respectively. A dilution series of the bispecific anti-VEGF/anti-IL-1beta Fab fragment (1.2-100 nM, 1:3 dilution) was successively injected for 90 s each, dissociation was monitored for 3600 s at a flow rate of 30 μl/min (single cycle kinetics). The surface was regenerated by injecting 10 mM Glycine pH 1.5 for 60 s. Bulk refractive index differences were corrected by subtracting blank injections and by subtracting the response obtained from the control flow cell without captured human VEGF121. Curve fitting was performed using the 1:1 Langmuir binding model within the Biacore evaluation software. To provide more robust fitting, the Multiple Rmax option was chosen for global fitting using both ligand densities.
as §2

[4] = molecular target: T4, human IL-1 beta (PeproTech 200-01B); experiment: SPR, Fab captured via anti-Fab antibody, human IL-1beta injected, 1:1 Langmuir fit
Description: as §1, §2

[5] = molecular target: T3, human VEGF121; experiment: competition ELISA: Fab preincubated with VEGF121, free VEGF121 bound to coated rhVEGFR-1-Fc detected; sheet title 'Competition ELISA VEGFR1-Fc, 8 pM VEGF121'
Description: (§4) 96-well-Plates (Maxisorp Nunc-Immoplates) were coated with 50 μL/well rhVEGFR-1-Fc (R&D #321-FL-050) at a final concentration of 1 μg/ml in 200 mM NaHC0₃, pH 9.4 for 1 hour at room temperature.
(§5) Meanwhile, antibody Fab fragments of different concentrations were preincubated with VEGF for form an antibody Fab-VEGF premix as follows: A dilution series of antibody Fab fragment was prepared by adding 280 μl of a solution of antibody Fab fragments (409.6 nM antibody in PBST-1% BSA) into the wells of the first column of a round bottom 96-well PS plate. The individual wells of columns 2-12 of the same plate were filled with 140 μl PBST-1% BSA. Subsequently, 1:2 dilutions were performed by transferring 140 μl of the antibody solution into the next column, thorough mixing and proceed with transferring 140 μl of this diluted antibody solution to the next column. This is repeated until column 11. Excess of 140 μl were discarded so that all wells comprise 140 μl. Column 12 served as the control (blank). […] 50 μl of the dilution series of the respective antibody Fab fragment were added to the VEGF121, or VEGF165, respectively; mixed thoroughly and incubated for 1.5 hours at room temperature.
(§6) The rhVEGFR-1-Fc coated plates were washed two times with PBST and blocked for 45 min with 200 μl of 2% MPBST. After washing off the MPBST solution twice with PBST, 50 μl of the antibody Fab-VEGF premix were added to the plate and incubated for 1.5 hours at room temperature. Subsequently, the plates were washed twice with PBST. Then, 50 μl of a solution comprising biotinylated anti-VEGF antibody (R&D, BAF293; 1:2000 dilution in PBST) and SA-HRP (KPL, 14-30-00; 1:2000 dilution in PBST) was added and incubated for 30 min at room temperature. After 6× washing with PBST, 50 μl of TMB substrate solution (two-component HRP substrate (KPL, 34021); used at room temperature) was added and incubated for 30 min at room temperature. 50 μl of 1N H₂SO₄ was added and absorbance was read at 450 nm.

[6] = molecular target: T2, Human VEGF121-His; experiment: SPR, VEGF121-His captured via anti-His antibody, Fab injected, single cycle kinetics, 1:1 Langmuir fit (same values as Table 1)
Description: as §3, §2

[7] = molecular target: T5, VEGF165 (UniProt P15692-4 27-191); experiment: competition ELISA: Fab preincubated with VEGF165, free VEGF165 bound to coated rhVEGFR-1-Fc detected; sheet title 'Competition ELISA VEGFR1-Fc, 8 pM VEGF165'
T5 construct: also called VEGF165 (Humanzyme, HZ-1153)
Description: as §4, §5, §6

[8] = molecular target: T2, Human VEGF121-His; experiment: SPR, VEGF121-His captured via anti-His antibody, Fab injected 1.2-100 nM, single cycle kinetics, 1:1 Langmuir fit
Description: as §3, §2

[9] = molecular target: T4, human IL-1 beta (PeproTech 200-01B); experiment: SPR, Fab captured via anti-Fab antibody, IL-1beta injected 0.74-60 nM, 1:1 Langmuir fit
Description: as §1, §2

[10] = molecular target: T4, human IL-1 beta (PeproTech 200-01B); experiment: SPR, Fab captured via anti-Fab antibody, human IL-1beta injected, 1:1 Langmuir fit (same values as Table 1)
Description: as §1, §2

Binder | Kd [1] [nM] | koff [1] [s⁻¹] | kon [1] [M⁻¹ s⁻¹] | t½ [1] [h] | Kd [3] [nM] | koff [3] [s⁻¹] | kon [3] [M⁻¹ s⁻¹] | t½ [3] [h] | koff [4] [s⁻¹] | kon [4] [M⁻¹ s⁻¹] | IC50 (read off the curve) [5] [nM] | IC50 (read off the curve) [7] [nM] | also measured
bispecific anti-VEGF/anti-IL-1beta Fab fragment 1HVL5.15 (Fab, V domains shown) VH: DETLVESGGGLVKPGGSLRLSCAAEGMVFKWNDMSWVRQAPGKGLEWVGSISKKGDHKYLNTKFIGRFTISRDNEKDTLYLQMNSLRAEDTAVYYCAKDVGFFDIWGQGTLVTVSS VL: AIYMHQEPSSLSASVGDRVTITCHGSYWLSSLMAWYQQKPGKAPKLLIYDAKYKHLGVPSRFSGSGSHEDYTLTISSLQPEDFATYYCQQYRYHPYTFGHGTKVEIKR | 0.045 | 0.000118 | 2.6e+06 | 1.63 | 0.01 | 1.47e-05 | 1.53e+06 | 13.2 | 0.000107 | 1.66e+06 | – | – | Kd [2]: 0.059 nM; t 1/2 [2]: 1.82 h
bispecific anti-VEGF/anti-IL-1beta Fab fragment 1HVL2.3 (Fab, V domains shown, First expressed in E. coli TG1, later in HEK293) VH: EQLVESGGGLVKPGGSLRLSCAASGMVFSWNAMSWVRQAPGKGLEWVGSISPKGDHKYLNTKFIGRFTISRDNSKNTLYLQMNSLRAEDTAVYYCAKDIGFFDVWGQGTLVTVSS VL: AIYMHQEPSSLSASVGDRVTITCHGSYWLSNYLAWYQQKPGKAPKLLIYDASYRIIGVPSRFSGSGSHEDYTLTISSLQPEDFATYYCQQYRYHPYTFGHGTKVEIKR | 5.79 | 0.0182 | 3.14e+06 | 0.01 | – | – | – | – | – | – | ~0.08 | ~0.2 | Kd [6]: 0.008 nM; koff [6]: 1.45e-05 s⁻¹; kon [6]: 1.75e+06 M⁻¹ s⁻¹; t½ [6]: 13.3 h; Kd [8]: 0.008 nM; koff [8]: 1.45e-05 s⁻¹; kon [8]: 1.75e+06 M⁻¹ s⁻¹; t 1/2 [8]: 13.3 h; Kd [9]: 4.57 nM; koff [9]: 0.0256 s⁻¹; kon [9]: 5.61e+06 M⁻¹ s⁻¹; t 1/2 [9]: 30 s; Kd [10]: 4.57 nM; koff [10]: 0.0256 s⁻¹; kon [10]: 5.61e+06 M⁻¹ s⁻¹; t 1/2 [10]: 30 s
bispecific anti-VEGF/anti-IL-1beta Fab fragment 1HVL12.85 (Fab, V domains shown) VH: DEQLVESGGGLVKPGGSLRLSCAAEGMVFKWNDMSWVRQAPGKGLEWVGSISKKGDHKYLNTKFIGRFTISRDNEKDTLYLQMNSLRAEDTAVYYCAKDVGFFDIWGQGTLVTVSS VL: AIYMHQEPSSLSASVGDRVTITCHGSYWLSSLVAWYQQKPGKAPKLLIYDAKYKHLGVPSRFSGSKEDQEFTLTISSLQPEDFATYYCQQYRYHPYTFGHGTKVEIKR | 0.02 | 6.54e-05 | 3.34e+06 | 2.95 | 0.006 | 1.51e-05 | 2.5e+06 | 12.7 | 0.000135 | 4.76e+06 | ~0.04 | ~0.09 | Kd [4]: 0.028 nM; t 1/2 [4]: 1.43 h
